The record followed here is article PMC6883073, “Unraveling Determinants of Affinity Enhancement in Dimeric Aptamers for a Dimeric Protein”.

Data set [1] deals with T1, VEGF-165 (UniProt P15692-4 27-191). The experiment in a line: EMSA; 10 nM VEGF-165; PBS + 0.005% Tween 20, pH 7.4 (+50 mM KCl for aptamer B); 2.5 nM aptamer heated at 90 C and cooled, 1 h incubation (temperature not stated, RT?); 7.5% PAGE in 0.5x TB pH 8.3 at 4 C. The settings on record: protein: recombinant; tags: His-tag; chain copies: 2; label: 5' fluorescein. Background: In EMSA bound probe runs differently from free probe, usually more slowly.

Data set [2] has as its target T1, VEGF-165. The experiment in a line: EMSA; top band only (1 aptamer:2 protein), apparent; PBS + 0.005% Tween 20, pH 7.4 (+50 mM KCl for aptamer B); 2.5 nM aptamer heated at 90 C and cooled, 1 h incubation (temperature not stated, RT?); 7.5% PAGE in 0.5x TB pH 8.3 at 4 C. The settings on record: protein: recombinant; tags: His-tag; chain copies: 2; label: 5' fluorescein.

Data set [3] deals with T1, VEGF-165. The data set can be described thus: EMSA; middle + top bands combined; PBS + 0.005% Tween 20, pH 7.4 (+50 mM KCl for aptamer B); 2.5 nM aptamer heated at 90 C and cooled, 1 h incubation (temperature not stated, RT?); 7.5% PAGE in 0.5x TB pH 8.3 at 4 C. The conditions noted are these: protein: recombinant; tags: His-tag; chain copies: 2; label: 5' fluorescein.
Data set [4] concerns the target T1, VEGF-165. The experiment in a line: EMSA; 10 nM VEGF-165; PBS + 0.005% Tween 20, pH 7.4 (+50 mM KCl for aptamer B); 2.5 nM aptamer heated at 90 C and cooled, 1 h incubation (temperature not stated, RT?); 7.5% PAGE in 0.5x TB pH 8.3 at 4 C. The settings on record: protein: recombinant; tags: His-tag; chain copies: 2; label: 5' fluorescein. The source holds these as a separate data set.

The target of data set [5] is T1, VEGF-165. The data set can be described thus: competition; displaces fA; 10 nM VEGF-165; PBS + 0.005% Tween 20, pH 7.4 (+50 mM KCl for aptamer B); 2.5 nM aptamer heated at 90 C and cooled, 1 h incubation (temperature not stated, RT?); 7.5% PAGE in 0.5x TB pH 8.3 at 4 C. The conditions noted are these: protein: recombinant; tags: His-tag; chain copies: 2.
Data set [6] addresses T1, VEGF-165. The experiment in a line: EMSA; PBS + 0.005% Tween 20, pH 7.4 (+50 mM KCl for aptamer B); 2.5 nM aptamer heated at 90 C and cooled, 1 h incubation (temperature not stated, RT?); 7.5% PAGE in 0.5x TB pH 8.3 at 4 C. The conditions noted are these: protein: recombinant; tags: His-tag; chain copies: 2; label: 5' fluorescein.
Data set [7] has as its target T1, VEGF-165. The experiment in a line: competition; displaces fC; 50 nM VEGF-165; PBS + 0.005% Tween 20, pH 7.4 (+50 mM KCl for aptamer B); 2.5 nM aptamer heated at 90 C and cooled, 1 h incubation (temperature not stated, RT?); 7.5% PAGE in 0.5x TB pH 8.3 at 4 C. The settings on record: protein: recombinant; tags: His-tag; chain copies: 2.
Another data set has as its target VEGF-121 (UniProt P15692-9 27-147). The data set can be described thus: EMSA; up to 333.3 nM VEGF-121; PBS + 0.005% Tween 20, pH 7.4 (+50 mM KCl for aptamer B); 2.5 nM aptamer heated at 90 C and cooled, 1 h incubation (temperature not stated, RT?); 7.5% PAGE in 0.5x TB pH 8.3 at 4 C. The conditions noted are these: protein: recombinant; tags: His-tag; chain copies: 2; label: 5' fluorescein.

The target of data set [8] is T1, VEGF-165. The data set can be described thus: EMSA; curve superimposed on AT10C; PBS + 0.005% Tween 20, pH 7.4 (+50 mM KCl for aptamer B); 2.5 nM aptamer heated at 90 C and cooled, 1 h incubation (temperature not stated, RT?); 7.5% PAGE in 0.5x TB pH 8.3 at 4 C. The settings on record: protein: recombinant; tags: His-tag; chain copies: 2; label: 5' fluorescein.

T1 sequence (P15692 other isoform, or with tags, fused parts or gaps): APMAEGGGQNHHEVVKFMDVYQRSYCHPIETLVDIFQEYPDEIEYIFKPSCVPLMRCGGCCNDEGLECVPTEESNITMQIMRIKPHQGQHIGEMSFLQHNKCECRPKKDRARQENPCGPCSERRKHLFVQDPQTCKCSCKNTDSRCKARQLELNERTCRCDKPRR
VEGF-121, sequence (P15692 other isoform, or with tags, fused parts or gaps): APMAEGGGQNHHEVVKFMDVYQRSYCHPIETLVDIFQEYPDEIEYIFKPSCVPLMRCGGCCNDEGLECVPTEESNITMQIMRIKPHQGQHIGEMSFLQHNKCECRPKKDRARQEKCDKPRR

B1: CT30C (structured_DNA)
DNA: CAATTGGGCCCGTCCGTATGGTGGGTTTTTTTTTTTTTTTTTTTTTTTTTTTTTTTCAATTGGGCCCGTCCGTATGGTGGGT
B1: in the data set with VEGF-165 [1], the binding signal was about 0.35 fraction bound.

B2: AT20A (structured_DNA)
DNA: GCCCGTCTTCCAGACAAGAGTGCAGGGCTTTTTTTTTTTTTTTTTTTTGCCCGTCTTCCAGACAAGAGTGCAGGGC
B2: the Kd in the data set with VEGF-165 [2] stood at 145 ± 11.6 nM; with VEGF-165 [3], 5.5 ± 0.9 nM.

B3: CT10A (structured_DNA)
DNA: CAATTGGGCCCGTCCGTATGGTGGGTTTTTTTTTTTGCCCGTCTTCCAGACAAGAGTGCAGGGC
Consider B3, for which the binding result in the data set with VEGF-165 [4] was “binds”.

B4: CT30A (structured_DNA)
DNA: CAATTGGGCCCGTCCGTATGGTGGGTTTTTTTTTTTTTTTTTTTTTTTTTTTTTTTGCCCGTCTTCCAGACAAGAGTGCAGGGC
Consider B4, for which the binding result in the data set with VEGF-165 [4] is “binds”.

B5: CT0A (structured_DNA)
DNA: CAATTGGGCCCGTCCGTATGGTGGGTGCCCGTCTTCCAGACAAGAGTGCAGGGC
Turning to B5, in the data set with VEGF-165 [4], the binding result was “binds”.

B6: nfAT100 (structured_DNA)
DNA: GCCCGTCTTCCAGACAAGAGTGCAGGGCTTTTTTTTTTTTTTTTTTTTTTTTTTTTTTTTTTTTTTTTTTTTTTTTTTTTTTTTTTTTTTTTTTTTTTTTTTTTTTTTTTTTTTTTTTTTTTTTTTTT
As for B6, the binding result in the data set with VEGF-165 [5] is reported as “binds”.

B7: CT0C (structured_DNA)
DNA: CAATTGGGCCCGTCCGTATGGTGGGTCAATTGGGCCCGTCCGTATGGTGGGT
For the molecule B7, the binding signal in the data set with VEGF-165 [1] is about 0.35 fraction bound. The Kd was 74.8 ± 3.5 nM with VEGF-165 [2] and 13.6 ± 2.7 nM in the data set with VEGF-165 [3].

B8: CT20A (structured_DNA)
DNA: CAATTGGGCCCGTCCGTATGGTGGGTTTTTTTTTTTTTTTTTTTTTGCCCGTCTTCCAGACAAGAGTGCAGGGC
For the molecule B8, in the data set with VEGF-165 [4], the binding result was “binds”. Consider CAATTGGGCCCGTCCGTATGGTGGGT (structured_DNA) [fC (SL2-B)], for which, in the data set with VEGF-165 [6], the Kd is 37.9 ± 14 nM.

B9: CT60C (structured_DNA)
DNA: CAATTGGGCCCGTCCGTATGGTGGGTTTTTTTTTTTTTTTTTTTTTTTTTTTTTTTTTTTTTTTTTTTTTTTTTTTTTTTTTTTTTCAATTGGGCCCGTCCGTATGGTGGGT
On to B9, for which the Kd with VEGF-165 [6] turned out to be 22.4 ± 1 nM.

B10: nfCT100 (structured_DNA)
DNA: CAATTGGGCCCGTCCGTATGGTGGGTTTTTTTTTTTTTTTTTTTTTTTTTTTTTTTTTTTTTTTTTTTTTTTTTTTTTTTTTTTTTTTTTTTTTTTTTTTTTTTTTTTTTTTTTTTTTTTTTT
B10: in the data set with VEGF-165 [7], the binding result is given as “binds”.

B11: CT20C (structured_DNA)
DNA: CAATTGGGCCCGTCCGTATGGTGGGTTTTTTTTTTTTTTTTTTTTTCAATTGGGCCCGTCCGTATGGTGGGT
B11: the binding signal with VEGF-165 [1] was about 0.35 fraction bound.

B12: AT10C (structured_DNA)
DNA: GCCCGTCTTCCAGACAAGAGTGCAGGGCTTTTTTTTTTCAATTGGGCCCGTCCGTATGGTGGGT
Regarding B12, the Kd with VEGF-165 [2] was determined as 87.3 ± 4.9 nM; with VEGF-165 [3], 12.1 ± 1.9 nM.

B13: AT20C (structured_DNA)
DNA: GCCCGTCTTCCAGACAAGAGTGCAGGGCTTTTTTTTTTTTTTTTTTTTCAATTGGGCCCGTCCGTATGGTGGGT
In the case of B13, in the data set with VEGF-165 [4], the binding result is “binds”. Consider GCCCGTCTTCCAGACAAGAGTGCAGGGC (structured_DNA) [fA (+5'GC+3'C)], for which the Kd with VEGF-165 [6] was 9.9 ± 1.3 nM. Also, the binding result in the data set with VEGF-121 is “no binding”.

B14: CT10C (structured_DNA)
DNA: CAATTGGGCCCGTCCGTATGGTGGGTTTTTTTTTTTCAATTGGGCCCGTCCGTATGGTGGGT
In the case of B14, the binding signal with VEGF-165 [1] was about 0.35 fraction bound.

B15: AT60A (structured_DNA)
DNA: GCCCGTCTTCCAGACAAGAGTGCAGGGCTTTTTTTTTTTTTTTTTTTTTTTTTTTTTTTTTTTTTTTTTTTTTTTTTTTTTTTTTTTTGCCCGTCTTCCAGACAAGAGTGCAGGGC
Regarding B15, the Kd with VEGF-165 [6] worked out at 7 ± 1.5 nM.

B16: AT60C (structured_DNA)
DNA: GCCCGTCTTCCAGACAAGAGTGCAGGGCTTTTTTTTTTTTTTTTTTTTTTTTTTTTTTTTTTTTTTTTTTTTTTTTTTTTTTTTTTTTCAATTGGGCCCGTCCGTATGGTGGGT
With B16, the binding result with VEGF-165 [8] is reported as “binds”.

B17: AT30C (structured_DNA)
DNA: GCCCGTCTTCCAGACAAGAGTGCAGGGCTTTTTTTTTTTTTTTTTTTTTTTTTTTTTTCAATTGGGCCCGTCCGTATGGTGGGT
B17: the binding result with VEGF-165 [4] was “binds”.

B18: AT0C (structured_DNA)
DNA: GCCCGTCTTCCAGACAAGAGTGCAGGGCCAATTGGGCCCGTCCGTATGGTGGGT
B18: the binding result with VEGF-165 [4] is reported as “binds”.
